From paper PMC4522599

B1: Bet v 1a (Bet v 1.0101), major birch pollen allergen (natural protein)
chain: GVFNYETETTSVIPAARLFKAFILDGDNLFPKVAPQAISSVENIEGNGGPGTIKKISFPEGFPFKYVKDRVDEVDHTNFKYNYSVIEGGPIGDTLEKISNEIKIVATPDGGSILKISNKYHTKGDHEVKAEQVKASKEMGETLLRAVESYLLAHSDAYN
B2: Bet v 1d (Bet v 1.0401), hypoallergenic isoform of the major birch pollen allergen (natural protein)
chain: MGVFNYEIETTSVIPAARLFKAFILDGDNLVPKVAPQAISSVENIEGNGGPGTIKKINFPEGFPFKYVKDRVDEVDHTNFKYNYSVIEGGPVGDTLEKISNEIKIVATPDGGCVLKISNKYHTKGNHEVKAEQVKASKEMGETLLRAVESYLLAHSDAYN

Columns and labels:
[1] = biological target: In trans activated C25A-cathepsin S (human); experiment: surface acoustic wave biosensor (sam5BLUE); C25A-cathepsin S coupled by EDC/NHS to a short-chain COOH sensor chip; untreated Bet v 1 injected at increasing concentrations (5 or 10 to 100 μM); 20 mM imidazole pH 6.7, 50 mM NaCl; apparent KD from kobs by linear regression
[2] = biological target: In trans activated C25A-cathepsin S (human); experiment: surface acoustic wave biosensor (sam5BLUE); C25A-cathepsin S immobilized; heat-destabilized Bet v 1 (10 min at 60 °C, spin-filtered) injected, 1a at 10 to 100 μM, 1d at 2.5 to 40 μM; pH 6.7

Row | Binder | Kd [1] [µM] | fold reduction in affinity against untreated Bet v 1d [2] [fold]
1 | B1 | 21.5 | –
2 | B2 | 5.4 | 5
